Results as given in paper doi:10.1101/2021.02.24.432656 (bioRxiv, 2021).

Target: Flag-importin α1 (human, UniProt P52292 1-529)
Experiment: pull-down

B1: GST-GFP fused ORF6 full-length protein (natural protein)
chain: MFHLVDFQVTIAEILLIIMRTFKVSIWNLDYIINLIIKNLSKSLTENKYSQLDEEQPMEID
**Q.** Does B1 bind?
**A.** Result: binds
